Experimental data reported in patent US12258396 (MEDICOVESTOR, dated 2025).

Assays:
[1] = target: T1, fusion protein containing the extracellular domain of human FRalpha and a polyhistidine tag (human, UniProt P15328 25-233); test: ELISA, plate coated with human FRalpha ECD-His, anti-human-IgG-Fc-HRP detection
T1 construct: extracellular domain; Coated on ELISA plates; also called human FRalpha extracellular domain; not shown: polyhistidine tag
Experimental: The affinity of each IgG1 for FRalpha was confirmed by ELISA. Briefly, a fusion protein containing the extracellular domain of human FRalpha and a polyhistidine tag was used to coat ELISA plates, which were washed three times with phosphate-buffered saline (PBS) containing 0.1 percent polysorbate 20 (PBST), then blocked with PBS containing 5 percent powdered milk (PBSM), and then washed three more times with PBST. Wells were then incubated with antibodies at varying concentrations for 60 minutes at room temperature in 1 percent PBSM. Wells were then washed three times with PBST, after which the secondary, horse-radish-peroxidase-conjugated antibody anti-human-IgG-Fc-HRP (ab97225, Abcam, United Kingdom) was added at a 1:8000 dilution in 1 percent PBSM for 50 minutes at room temperature. The wells were then washed six times with PBST, after which 3,3',5,5"-tetramethylbenzidine (TMB) was added. The reaction was stopped with 2 molar sulfuric acid, and the TMB diamine product was quantified at 450 nanometers in a plate reader. Results are depicted in FIG. 2.

[2] = target: T2, human FRalpha expressed on cells (transfected HEK293 cells; SKOV3 human ovarian cancer cells) (human, UniProt P15328 25-234); test: flow cytometry on HEK293 cells transfected to express FRalpha, PE anti-human IgG Fcgamma detection
T2 construct: whole, on cells; also called human folate receptor alpha
T2 sequence (P15328 25-234): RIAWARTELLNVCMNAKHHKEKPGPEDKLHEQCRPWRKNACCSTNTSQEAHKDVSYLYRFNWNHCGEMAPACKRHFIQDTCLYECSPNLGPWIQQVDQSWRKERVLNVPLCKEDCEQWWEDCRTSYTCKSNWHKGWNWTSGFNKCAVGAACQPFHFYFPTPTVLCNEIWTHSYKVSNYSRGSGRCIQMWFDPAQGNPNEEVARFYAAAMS
Experimental: (§1) The affinity of each antibody was then assessed by flow cytometry. Briefly, HEK293 cells transfected to express FRalpha were washed with fluorescence-activated cell sorting (FACS) buffer, to which the IgGs were added at varying concentrations and incubated at 4 degrees Celsius for 60 minutes. The cells were then centrifuged and washed twice in FACS buffer. A phycoerythrin-labelled anti-human IgG, Fcgamma antibody (109-115-098; Jackson ImmunoResearch, Pennsylvania, United States) was then added to the cells at a 1:200 dilution and incubated at 4 degrees Celsius for 30 minutes. The cells were then washed, resuspended in FACS buffer, and counted by flow cytometry. Results are depicted in FIG. 4.

[3] = target: T2, human FRalpha expressed on cells …; test: flow cytometry on SKOV3 human ovarian cancer cells that express FRalpha
Experimental: as §1
The flow cytometry experiment of the preceding paragraph was repeated with a human ovarian cancer cell line that expresses FRalpha, SKOV3. Results are depicted in FIGS. 5A and 5B. […] The antibody according to SEQ ID NO: 3-12 was then designated the lead antibody for further development.

[4] = target: T3, fusion protein containing the extracellular domain of cynomolgus FRalpha and a polyhistidine tag (cynomolgus, UniProt A0A2K5U044 25-233); test: ELISA, plate coated with cynomolgus FRalpha ECD-His, anti-human-IgG-Fc-HRP detection
T3 construct: extracellular domain; Coated on ELISA plates; also called cynomolgus FRalpha extracellular domain; not shown: polyhistidine tag
T3 sequence (A0A2K5U044 entry or part of it): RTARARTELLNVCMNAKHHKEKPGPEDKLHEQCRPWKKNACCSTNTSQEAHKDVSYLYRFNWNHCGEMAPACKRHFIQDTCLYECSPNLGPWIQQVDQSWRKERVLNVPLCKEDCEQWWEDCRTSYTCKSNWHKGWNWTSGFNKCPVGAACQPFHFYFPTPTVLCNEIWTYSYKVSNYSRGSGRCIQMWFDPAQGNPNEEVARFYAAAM

T1 sequence (P15328 25-233 limits assumed): as the sequence (A0A2K5U044 entry or part of it) above, with T2I, R4W, K37R, P146A, Y171H counted along it

B1: lead fully-human anti-FRalpha IgG1 antibody (antibody according to SEQ ID NO: 3-12) (antibody, V domains shown)
VH: EVQLLESGGGLVKPGGSLRLSCAASGFTFSSYTMNWVRQAPGKGLEWVSSISSGGGYIYYADSVKDRFTISRDNAKNSLYLQMNSLRAEDTAVYYCAKGDTIMIISAWGQGTTVTVSS
VL: DIQLTQSPSTLSASVGDRVTITCRASQSISSWLAWHQQKPGKAPKLLIYAASSLQNGVPSRFSGSGFGTDFTLTISSLQPEDFATYYCQQASSFPLTFGGGTKVEIKR
notes: Fully human IgG1/kappa; also called lead antibody; lead anti-FRalpha antibody
EC50 [1]: ~0.05 nM | EC50 [2]: ~5 nM | EC50 [3]: < 1 nM | EC50 [4]: ~0.06 nM

B2: Mirvetuximab (antibody, V domains shown)
VH: QVQLVQSGAEVVKPGASVKISCKASGYTFTGYFMNWVKQSPGQSLEWIGRIHPYDGDTFYNQKFQGKATLTVDKSSNTAHMELLSLTSEDFAVYYCTRYDGSRAMDYWGQGTTVTVSS
VL: DIVLTQSPLSLAVSLGQPAIISCKASQSVSFAGTSLMHWYHQKPGQQPRLLIYRASNLEAGVPDRFSGSGSKTDFTLTISPVEAEDAATYYCQQSREYPYTFGGGTKLEIK
EC50 [1]: ~0.12 nM | EC50 [2]: ~4 nM | EC50 [4]: ~0.16 nM
